Test results: patent US20230212288A1 (published 2023)
Each block holds one binder with its values, some of them ahead of it.

Molecular target: human CD3 receptor complex (human, UniProt P07766 23-207; P09693 23-182; P04234 22-171)
Assay: cell-based or functional assay

Sequence of human CD3 receptor complex (P07766 23-207, chain 1 of 3): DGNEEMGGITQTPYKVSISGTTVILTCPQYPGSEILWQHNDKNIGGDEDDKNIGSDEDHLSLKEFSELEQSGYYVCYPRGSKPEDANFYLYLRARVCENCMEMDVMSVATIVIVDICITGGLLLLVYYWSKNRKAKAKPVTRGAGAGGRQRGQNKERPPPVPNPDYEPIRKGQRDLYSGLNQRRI
Sequence of human CD3 receptor complex (P09693 23-182, chain 2 of 3): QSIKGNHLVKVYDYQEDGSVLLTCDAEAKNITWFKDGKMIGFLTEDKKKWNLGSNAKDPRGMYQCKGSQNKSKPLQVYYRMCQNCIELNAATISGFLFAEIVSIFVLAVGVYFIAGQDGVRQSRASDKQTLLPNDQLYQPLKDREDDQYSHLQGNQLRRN
Sequence of human CD3 receptor complex (P04234 22-171, chain 3 of 3): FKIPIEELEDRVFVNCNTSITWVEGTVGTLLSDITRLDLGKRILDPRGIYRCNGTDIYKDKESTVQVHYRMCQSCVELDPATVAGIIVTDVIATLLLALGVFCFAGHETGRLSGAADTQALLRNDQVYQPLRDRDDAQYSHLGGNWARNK

B1: 309_01_G12 (bispecific antibody)
chain: DIQLTQTPASLAVSLGQRATISCKASQSVDYDGDSYLNWYQQIPGQPPKLLIYDASNLVSGIPPRFSGSGSGTDFTLNIHPVEKVDAATYHCQQSTEDPWTFGGGTKLEIKGGSGGAMAEVQLVQSGAEVKKPGASVKVSCKASGYTFTGYYMHWVRQAPGQGLEWMGRINPNSGGTNYAQKFQGRVTMTRDTSISTAYMELSRLRSDDAAVYYCARPSRYSNYVDWGQGTTVTVSSGGGGSGGGGSGGGASNFMLTQPHSVSESPGKTVTISCTRSSGSIASNYVQWYQQRPGSAPTTVIYDDDQRPSGVPDRFSGSIDRSSNSASLTISGLKTEDEADYYCQSYDNTNPWVFGGGTKLTVLGQPAAAGGGGSQVQLQQSGAELVRPGSSVKISCKASGYAFSSYWMNWVKQRPGQGLEWIGQIWPGDGDTNYNGKFKGKATLTADESSSTAYMQLSSLASEDSAVYFCARRETTTVGRYYYAMDYWGQGTSVTVSSASAAVECPPCPAPPVAGPSVFLFPPKPKDTLMISRTPEVTCVVVDVSHEDPEVQFNWYVDGVEVHNAKTKPREEQFNSTFRVVSVLTVVHQDWLNGKEYKCKVSNKGLPAPIEKTISKTKGQPREPQVYTLPPSREEMTKNQVSLTCLVKGFYPSDIAVEWESNGQPENNYKTTPPMLDSDGSFFLYSKLTVDKSRWQQGNVFSCSVMHEALHNHYTQKSLSLSPGK
Activity (EC50 for activation of Jurkat line cells, pM): 13.8 pM

B2: 410_01_C03 (bispecific antibody)
chain: DIQLTQTPASLAVSLGQRATISCKASQSVDYDGDSYLNWYQQIPGQPPKLLIYDASNLVSGIPPRFSGSGSGTDFTLNIHPVEKVDAATYHCQQSTEDPWTFGGGTKLEIKGGSGGAMAQVQLQQWGAGLLKPSETLSLTCAVYGGSFSGYYWSWIRQPPGKGLEWIGEINHSGSTNYNPSLKSRVTISVDTSKNQFSLKLSSVTAADTAVYYCARATRNGAFDYWGQGTLVTVSSGGGGSGGGGSGGGASNFMLTQPHSVSESPGKTVTISCTRSSGRIASNYVQWYQQRPGSSPTTVIYEDNQRPSGVPDRFSGSIDSSSNSASLTISGLKTEDEADYYCQSYDSSNVVFGGGTQLTVLGQPAAAGGGGSQVQLQQSGAELVRPGSSVKISCKASGYAFSSYWMNWVKQRPGQGLEWIGQIWPGDGDTNYNGKFKGKATLTADESSSTAYMQLSSLASEDSAVYFCARRETTTVGRYYYAMDYWGQGTSVTVSSASAAVECPPCPAPPVAGPSVFLFPPKPKDTLMISRTPEVTCVVVDVSHEDPEVQFNWYVDGVEVHNAKTKPREEQFNSTFRVVSVLTVVHQDWLNGKEYKCKVSNKGLPAPIEKTISKTKGQPREPQVYTLPPSREEMTKNQVSLTCLVKGFYPSDIAVEWESNGQPENNYKTTPPMLDSDGSFFLYSKLTVDKSRWQQGNVFSCSVMHEALHNHYTQKSLSLSPGK
Activity (EC50 for activation of Jurkat line cells, pM): 3 pM

B4: 309_01_A02 (bispecific antibody)
chain: DIQLTQTPASLAVSLGQRATISCKASQSVDYDGDSYLNWYQQIPGQPPKLLIYDASNLVSGIPPRFSGSGSGTDFTLNIHPVEKVDAATYHCQQSTEDPWTFGGGTKLEIKGGSGGAMAEVQLVESGGGLVKPGGSLRLSCAASGFTFSSYSMNWVRQAPGKGLEWVSSISSSSSYIYYADSVKGRFTISRDNAKNSLYLQMNSLRAEDTAVYYCARSSRIQAGMDVWGQGTLVTVSSGGGGSGGGGSGGGASNFMLTQPHSVSESPGKTVTISCTRSSGTIASTYVQWYQQRPGSSPTTVIYEDNQRPSGVPDRFSGSIDSSSNSASLTISGLKTEDAADYFCQSYDSNNRVFGGGTKVTVLGQPAAAGGGGSQVQLQQSGAELVRPGSSVKISCKASGYAFSSYWMNWVKQRPGQGLEWIGQIWPGDGDTNYNGKFKGKATLTADESSSTAYMQLSSLASEDSAVYFCARRETTTVGRYYYAMDYWGQGTSVTVSSASAAVECPPCPAPPVAGPSVFLFPPKPKDTLMISRTPEVTCVVVDVSHEDPEVQFNWYVDGVEVHNAKTKPREEQFNSTFRVVSVLTVVHQDWLNGKEYKCKVSNKGLPAPIEKTISKTKGQPREPQVYTLPPSREEMTKNQVSLTCLVKGFYPSDIAVEWESNGQPENNYKTTPPMLDSDGSFFLYSKLTVDKSRWQQGNVFSCSVMHEALHNHYTQKSLSLSPGK
Activity (EC50 for activation of Jurkat line cells, pM): 7.9 pM

B5: 410_01_C09 (bispecific antibody)
chain: DIQLTQTPASLAVSLGQRATISCKASQSVDYDGDSYLNWYQQIPGQPPKLLIYDASNLVSGIPPRFSGSGSGTDFTLNIHPVEKVDAATYHCQQSTEDPWTFGGGTKLEIKGGSGGAMAEVQLVQSGAEVKKPGASVKVSCKASGYTFTSYYMYWVRQAPGQGLEWMGRINPNSGGTNYAQKFQGRVTMTRDTSISTAYMELSRLRSDDTAVYYCARPSRYSNYVDWGQGTLVTVSSGGGGSGGGGSGGGASNFMLTQPHSVSESPGKTVTISCTRSSGSIASNYVQWYQQRPGSSPTTVIYEDNQRPSGVPDRFSGSIDSSSNSASLTISGLKTEDEADYYCQSYDSRWIWVSGGGTKVTVLGQPAAAGGGGSQVQLQQSGAELVRPGSSVKISCKASGYAFSSYWMNWVKQRPGQGLEWIGQIWPGDGDTNYNGKFKGKATLTADESSSTAYMQLSSLASEDSAVYFCARRETTTVGRYYYAMDYWGQGTSVTVSSASAAVECPPCPAPPVAGPSVFLFPPKPKDTLMISRTPEVTCVVVDVSHEDPEVQFNWYVDGVEVHNAKTKPREEQFNSTFRVVSVLTVVHQDWLNGKEYKCKVSNKGLPAPIEKTISKTKGQPREPQVYTLPPSREEMTKNQVSLTCLVKGFYPSDIAVEWESNGQPENNYKTTPPMLDSDGSFFLYSKLTVDKSRWQQGNVFSCSVMHEALHNHYTQKSLSLSPGK
Activity (EC50 for activation of Jurkat line cells, pM): 2.2 pM

B8: 309_01_G04 (bispecific antibody)
chain: DIQLTQTPASLAVSLGQRATISCKASQSVDYDGDSYLNWYQQIPGQPPKLLIYDASNLVSGIPPRFSGSGSGTDFTLNIHPVEKVDAATYHCQQSTEDPWTFGGGTKLEIKGGSGGAMAEVQLVESGGGVVQPGRSLRLSCAASGFTVSSNYMSWVRQAPGKGLEWVSAISGSGGSTYYADSVKGRFTTSRDNSKNTLYLQMNSLRAEDTAIYYCAKEDYYGGYFDYWGQGTMVTVSSGGGGSGGGGSGGGASNFMLTQPHSVSESPGKTVTISCTRSSGSIASNYVQWYQQRPGSSPTTVIYEDNQRPSGVPDRFSGSIDSSSNSASLTISGLKTEDEADYYCQSYDSSNQAVFGGGTKVTVLGQPAAAGGGGSQVQLQQSGAELVRPGSSVKISCKASGYAFSSYWMNWVKQRPGQGLEWIGQIWPGDGDTNYNGKFKGKATLTADESSSTAYMQLSSLASEDSAVYFCARRETTTVGRYYYAMDYWGQGTSVTVSSASAAVECPPCPAPPVAGPSVFLFPPKPKDTLMISRTPEVTCVVVDVSHEDPEVQFNWYVDGVEVHNAKTKPREEQFNSTFRVVSVLTVVHQDWLNGKEYKCKVSNKGLPAPIEKTISKTKGQPREPQVYTLPPSREEMTKNQVSLTCLVKGFYPSDIAVEWESNGQPENNYKTTPPMLDSDGSFFLYSKLTVDKSRWQQGNVFSCSVMHEALHNHYTQKSLSLSPGK
Activity (EC50 for activation of Jurkat line cells, pM): 2 pM

Second part, the binder after the results:

Activity (EC50 for activation of Jurkat line cells, pM): 1.5 pM
B3: 418_01_C05 (bispecific antibody)
chain: DIQLTQTPASLAVSLGQRATISCKASQSVDYDGDSYLNWYQQIPGQPPKLLIYDASNLVSGIPPRFSGSGSGTDFTLNIHPVEKVDAATYHCQQSTEDPWTFGGGTKLEIKGGSGGAMAEVQLVESGGGVVQPGRSLRLSCAASGFTFSSYGMHWVRQAPGKGLEWVSYINSRSSTIYYADSVKGRFTISRDNAKNSLYLQMNSLRDEDTAVYYCAKDKPLSGYAFDIWGQGTTVTVSSGGGGSGGGGSGGGASNFMLTQPHSVSESPGKTVTISCTRSSGSIASNFVQWYQQRPGRAPTIVIFDDDQRPSGVPDRFSGSIDRSSDSASLSISGLKTEDEADYYCQSYATRTQGVVFGGGTKVTVLGQPAAAGGGGSQVQLQQSGAELVRPGSSVKISCKASGYAFSSYWMNWVKQRPGQGLEWIGQIWPGDGDTNYNGKFKGKATLTADESSSTAYMQLSSLASEDSAVYFCARRETTTVGRYYYAMDYWGQGTSVTVSSASAAVECPPCPAPPVAGPSVFLFPPKPKDTLMISRTPEVTCVVVDVSHEDPEVQFNWYVDGVEVHNAKTKPREEQFNSTFRVVSVLTVVHQDWLNGKEYKCKVSNKGLPAPIEKTISKTKGQPREPQVYTLPPSREEMTKNQVSLTCLVKGFYPSDIAVEWESNGQPENNYKTTPPMLDSDGSFFLYSKLTVDKSRWQQGNVFSCSVMHEALHNHYTQKSLSLSPGK

Activity (EC50 for activation of Jurkat line cells, pM): 4.3 pM
B6: 418_03_H01 (bispecific antibody)
chain: DIQLTQTPASLAVSLGQRATISCKASQSVDYDGDSYLNWYQQIPGQPPKLLIYDASNLVSGIPPRFSGSGSGTDFTLNIHPVEKVDAATYHCQQSTEDPWTFGGGTKLEIKGGSGGAMAQVQLQQWGAGLLKPSETLSLTCAVYGGSFSRYYWSWIRQSPGKGLEWIGEIKHRGRTNYNPSLKSRVTMSVDTSKNQFSLQLRSVTAADTAVYYCARVYSSGWFSYWGQGTLVTVSSGGGGSGGGGSGGGASNFMLTQPHSVSESPGKTVTISCTRSSGSIARNYVQWYQQRPGSAPTTVIYEDNQRPSGVPDRFSGSIDSSSNSASLTISGLKTEDEADYYCQSYDGSNWVFGGGTKVTVLGQPAAAGGGGSQVQLQQSGAELVRPGSSVKISCKASGYAFSSYWMNWVKQRPGQGLEWIGQIWPGDGDTNYNGKFKGKATLTADESSSTAYMQLSSLASEDSAVYFCARRETTTVGRYYYAMDYWGQGTSVTVSSASAAVECPPCPAPPVAGPSVFLFPPKPKDTLMISRTPEVTCVVVDVSHEDPEVQFNWYVDGVEVHNAKTKPREEQFNSTFRVVSVLTVVHQDWLNGKEYKCKVSNKGLPAPIEKTISKTKGQPREPQVYTLPPSREEMTKNQVSLTCLVKGFYPSDIAVEWESNGQPENNYKTTPPMLDSDGSFFLYSKLTVDKSRWQQGNVFSCSVMHEALHNHYTQKSLSLSPGK

Activity (EC50 for activation of Jurkat line cells, pM): 1 pM
B7: 418_03_E12 (bispecific antibody)
chain: DIQLTQTPASLAVSLGQRATISCKASQSVDYDGDSYLNWYQQIPGQPPKLLIYDASNLVSGIPPRFSGSGSGTDFTLNIHPVEKVDAATYHCQQSTEDPWTFGGGTKLEIKGGSGGAMAQVQLVESGGGVVQPGRSLRLSCAASGFTFSSYGMHWVRQAPGKGLEWVSSISSSSSYIYYADSVKGRFTISRDNAKNSLYLQMNSLRADDTAVYYCARRSFSSVFADYWGQGTLVTVSSGGGGSGGGGSGGGASNFMLTQPHSVSESPGKTVTISCTRSRGSIASNYVQWYQQRPGRAPTIVIFDDDQRPSGVPDRFSGSIDRSSDSASLRISGLKTEDEADYYCQSYATRSQSVVFGGGTKLTVLGQPAAAGGGGSQVQLQQSGAELVRPGSSVKISCKASGYAFSSYWMNWVKQRPGQGLEWIGQIWPGDGDTNYNGKFKGKATLTADESSSTAYMQLSSLASEDSAVYFCARRETTTVGRYYYAMDYWGQGTSVTVSSASAAVECPPCPAPPVAGPSVFLFPPKPKDTLMISRTPEVTCVVVDVSHEDPEVQFNWYVDGVEVHNAKTKPREEQFNSTFRVVSVLTVVHQDWLNGKEYKCKVSNKGLPAPIEKTISKTKGQPREPQVYTLPPSREEMTKNQVSLTCLVKGFYPSDIAVEWESNGQPENNYKTTPPMLDSDGSFFLYSKLTVDKSRWQQGNVFSCSVMHEALHNHYTQKSLSLSPGK
